± gives the standard deviation.
Assay: protein stability index of a GFP-peptide fusion (GPS, HEK-293T) (PSI 1-6); higher = more stable
[1] = treatment: DMSO, c terminus: a fixed tail appended
[2] = treatment: MLN4924 1 uM, 8 h, c terminus: a fixed tail appended
[3] = treatment: DMSO, c terminus: native
[4] = treatment: MLN4924 1 uM, 8 h, c terminus: native
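Also: 24-mer peptide tiles fused after GFP, lentivirally expressed, FACS-sorted into six equal bins by GFP/DsRed ratio, decoded by Illumina sequencing, PSI is the read-weighted mean bin number.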

Sequence: IDGDGDDMERFMEEMRELRRKIRE [BEX5]
- protein stability index [1]: 3.26 ± 0.24
- protein stability index [2]: 3.71 ± 0.34

Sequence: DSKDCILEPLSLPESPGGTTTLEG [ZNF277]
- protein stability index [1]: 5.36 ± 0.19
- protein stability index [2]: 5.32 ± 0.25

Sequence: TNDSLSLKPSWFDFGFAILGFAYA [MIA2]
- protein stability index [1]: 2.99 ± 0.53
- protein stability index [2]: 2.49 ± 0.4

Sequence: LLAPGEQSLPCTERKPAATARLSR [KISS1]
- protein stability index [1]: 4.46 ± 0.37
- protein stability index [2]: 4.72 ± 0.18

Sequence: IASSDSEVEIVGVQEHARCVHPRG [C18orf25]
- protein stability index [1]: 4.49 ± 0.37
- protein stability index [2]: 4.6 ± 0.1

Sequence: DVQLLHSWNNNDRSLNVFVKEDDK [SPSB1]
- protein stability index [1]: 4.88 ± 0.14
- protein stability index [2]: 4.97 ± 0.18

Sequence: LRCLDRDEPSKPTLALEYTYGRRA [DYNC2LI1]
- protein stability index [1]: 3.45 ± 0.14
- protein stability index [2]: 3.41 ± 0.32

Sequence: GEEQAQLLHVSSPNLASDSDLSRR [KCNA1]
- protein stability index [1]: 5.36 ± 0.16
- protein stability index [2]: 5.33 ± 0.11

Sequence: YYNVVLLRYQFSRPGPQSVPLQLS [FCHO1]
- protein stability index [1]: 3.13 ± 0.43
- protein stability index [2]: 2.91 ± 0.53

Sequence: EEEVFPLAMNYLDRFLAGVPTPKS [CCND2]
- protein stability index [1]: 3.35 ± 0.43
- protein stability index [2]: 3.55 ± 0.25

Sequence: KLVKVCNGHDCWSLISLSNNTGKN [TENT5D]
- protein stability index [1]: 2.33 ± 0.24
- protein stability index [2]: 2.34 ± 0.43

Sequence: LSYRNGYAIVRRPTVGIGGDRLQF [EFHC1]
- protein stability index [1]: 2.23 ± 0.24
- protein stability index [2]: 2.35 ± 0.29

Sequence: ELDPEVEGTKPSATEMIWAVLAAF [GOLPH3L]
- protein stability index [1]: 2.21 ± 0.36
- protein stability index [2]: 2.37 ± 0.28

Sequence: SSLSFFLKKMGKRLDYLNLKGARL [FBXO39]
- protein stability index [1]: 2.96 ± 0.66
- protein stability index [2]: 2.63 ± 0.43

Sequence: LCLGGLACLIVMFLPEKKDTGVFA [SLC22A15]
- protein stability index [1]: 3.44 ± 0.26
- protein stability index [2]: 3.08 ± 0.67

Sequence: FITRQLKGLEDTKSPQFNRYFYLL [PDS5B]
- protein stability index [1]: 2.01 ± 0.37
- protein stability index [2]: 2.11 ± 0.16

Sequence: SSSHQKCPQLGGPEASGGLVQWI [PLEKHN1]
- protein stability index [3]: 3.17 ± 0.38
- protein stability index [4]: 3.47 ± 0.26

Sequence: PIVSSLADPLDTPPDSKEGIVVES [PDZK1]
- protein stability index [1]: 5.37 ± 0.14
- protein stability index [2]: 5.25 ± 0.48

Sequence: RRKREVLVEDMVSQEEAQGLPSSE [ZNF24]
- protein stability index [1]: 5.31 ± 0.2
- protein stability index [2]: 5.43 ± 0.15

Sequence: NQLQTKVAVLEQEIKDKDQLVLRT [SASS6]
- protein stability index [1]: 4.65 ± 0.21
- protein stability index [2]: 4.74 ± 0.27

Sequence: ALCENFPEEMATYLRYVRRLDFFE [CSNK1G1]
- protein stability index [1]: 2.21 ± 0.73
- protein stability index [2]: 2.26 ± 0.26

Sequence: PTFRFLTKMWHPNIYENGDVCISI [UBE2R2]
- protein stability index [1]: 3.01 ± 0.68
- protein stability index [2]: 3.15 ± 0.71

Sequence: GEEQLKTHKKCKEEVVSTLDAVQV [FCHO1]
- protein stability index [1]: 4.13 ± 0.38
- protein stability index [2]: 4.12 ± 0.19

Sequence: ALARNLLVDGETGESFPAQVPSGE [NFE2L1]
- protein stability index [1]: 4.79 ± 0.45
- protein stability index [2]: 4.5 ± 0.61

Sequence: MNYRRLGGGVGVIKMTHCESHIW [KLHL20]
- protein stability index [3]: 2.75 ± 0.32
- protein stability index [4]: 2.34 ± 0.31

Sequence: MEACMDGHVEVARLLLDSGAQVNM [ANKRD17]
- protein stability index [1]: 2.98 ± 0.32
- protein stability index [2]: 3.06 ± 0.28

Sequence: GDFAWERVRGLGLPKLYLPTGPRR [CDKN1A]
- protein stability index [1]: 2.98 ± 0.32
- protein stability index [2]: 3.32 ± 0.4

Sequence: IIYMAILLTHRCLRDEHRCASKYG [DHCR7]
- protein stability index [1]: 2.83 ± 0.75
- protein stability index [2]: 2.75 ± 0.81

Sequence: FKHPSIRNPVSLVVTRLVILGSGE [ADAMTS4]
- protein stability index [2]: 3.03 ± 0.97

Sequence: SLGPALSTGPRGLCAMPQTGDAF [VENTX]
- protein stability index [3]: 2.44 ± 0.12
- protein stability index [4]: 2.3 ± 0.11

Sequence: LMCFDPDTDKWIQKAPMTTVRGLH [KLHL13]
- protein stability index [1]: 2.57 ± 0.18
- protein stability index [2]: 2.64 ± 0.23

Sequence: STSRAHKLPSRRQPGLLHLQSCGD [FAM189A2]
- protein stability index [1]: 3.67 ± 0.33
- protein stability index [2]: 3.85 ± 0.13

Sequence: SFIKNSDSFDKFEFCEPAFVVGNC [PCMTD1]
- protein stability index [1]: 2.37 ± 0.11
- protein stability index [2]: 2.62 ± 0.22

Sequence: AAVLQYASLVGQKCSERMLLFRN [ATE1]
- protein stability index [3]: 2.38 ± 0.043
- protein stability index [4]: 2.27 ± 0.33

Sequence: KTQEHTPTPDDHVFRWLAYSYAST [CPXM2]
- protein stability index [1]: 2.14 ± 0.34
- protein stability index [2]: 2.2 ± 0.3

Sequence: TFPKALTNGSFSPSGNNGSVNWRT [DLC1]
- protein stability index [1]: 3.14 ± 0.14
- protein stability index [2]: 3.19 ± 0.23

Sequence: CYTFSVLITFDNKAHSGRIPISLE [MCOLN1]
- protein stability index [1]: 3.58 ± 0.41
- protein stability index [2]: 3.3 ± 0.62

Sequence: RAPVVGVRVNVLLSRYLIEPCGPG [DLC1]
- protein stability index [1]: 2.45 ± 0.7
- protein stability index [2]: 2.79 ± 0.86

Sequence: FCREEMGEVLKSSTFSSGPSDKMK [SPOPL]
- protein stability index [1]: 3.53 ± 0.41
- protein stability index [2]: 3.69 ± 0.23

Sequence: RKRRRNGSKEGNHHSTQPKRNKRN [FAM104B]
- protein stability index [1]: 5.22 ± 0.38
- protein stability index [2]: 4.92 ± 0.48

Sequence: VSSVTQVEVDENAYRCGSGMQMAE [NET1]
- protein stability index [1]: 4.2 ± 0.3
- protein stability index [2]: 4.42 ± 0.11

Sequence: LYFSIHRYEQGRFWPHLKASNWST [HDAC6]
- protein stability index [1]: 2.77 ± 0.66
- protein stability index [2]: 2.73 ± 0.64

Sequence: LYDLRADREVAIYSKESIIFGASS [GNB5]
- protein stability index [1]: 2.51 ± 0.27
- protein stability index [2]: 2.72 ± 0.27

Sequence: ESQKKKQQDDSDEYDDDDSAASTS [ZNF207]
- protein stability index [1]: 5.7 ± 0.1
- protein stability index [2]: 5.53 ± 0.18

Sequence: EQAKKESEDQKRLKQAKELDRERA [CHCHD3]
- protein stability index [1]: 5.57 ± 0.24
- protein stability index [2]: 5.48 ± 0.17

Source: the supplement of paper PMC10567573
